The chains are these.
T1: human GALR2 (Galanin Receptor 2) (human, UniProt O43603 1-387)
T1 sequence: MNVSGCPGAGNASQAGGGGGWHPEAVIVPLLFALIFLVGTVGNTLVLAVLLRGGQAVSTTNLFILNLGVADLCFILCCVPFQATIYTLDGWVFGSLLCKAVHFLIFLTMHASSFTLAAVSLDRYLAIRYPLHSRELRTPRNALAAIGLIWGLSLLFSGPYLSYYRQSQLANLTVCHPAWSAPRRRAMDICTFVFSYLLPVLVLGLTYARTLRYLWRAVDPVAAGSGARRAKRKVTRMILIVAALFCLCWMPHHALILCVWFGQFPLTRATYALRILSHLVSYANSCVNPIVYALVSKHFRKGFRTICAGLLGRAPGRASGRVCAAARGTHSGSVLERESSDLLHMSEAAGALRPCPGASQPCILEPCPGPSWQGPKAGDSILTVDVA

28 molecules from patent US20130196348A1 (ACTELION PHARMACEUTICALS, published 2013) can be followed below.

This assay has as its target T1, human GALR2 (Galanin Receptor 2). As to the kind of experiment: cell-based or functional assay.
On to NWTAQAMLYLKGAQG [NWTAQAMLYLKGAQG (SEQ ID NO: 25)], for which the “FLIPR EC50” value was found to be 3.6 nM.
On the same count and under the same terms, next, NWTPQAMLYLAGAQG [NWTPQAMLYLAGAQG (SEQ ID NO: 29)]: 9.6 nM; NWTPQAMLYLKGAQA [NWTPQAMLYLKGAQA (SEQ ID NO: 32)]: 2 nM; NWTPQAMLYLKGA [NWTPQAMLYLKGA (SEQ ID NO: 18)]: 4.3 nM.
Still for that read-out and setting: the figure for NWTPQAALYLKGAQG [NWTPQAALYLKGAQG (SEQ ID NO: 27)] is 3.4 nM.
Still for that read-out and setting: the figure for NWTPQPMLYLKGAQG [NWTPQPMLYLKGAQG (SEQ ID NO: 36)] is 55 nM; for NWTPQAMAYLKGAQG [NWTPQAMAYLKGAQG (SEQ ID NO: 28)] it is 0.8 nM.
In the case of NWTPPAMLYLKGAQG [NWTPPAMLYLKGAQG (SEQ ID NO: 35)], the “FLIPR EC50” value amounted to 97 nM.
For the molecule NWTPQAMLYLKGAQP [NWTPQAMLYLKGAQP (SEQ ID NO: 41)], the “FLIPR EC50” value was found to be 0.3 nM.
Turning to NWTPQAMLYLKGAQG [human Neuropeptide Q-Glycine (SEQ ID NO: 14)], the “Aequorin EC50” value is 5.7 nM and the “FLIPR EC50” value was determined as 4.2 nM.
Take NWTPQAMLYLKGAPG [NWTPQAMLYLKGAPG (SEQ ID NO: 40)]: the “FLIPR EC50” value worked out at 0.2 nM.
NWTPQAMLYLK [NWTPQAMLYLK (SEQ ID NO: 20)]: the “FLIPR EC50” value came out at 1.9 nM.
As to SPNPQLLTIPEAATILLASLQKSPEDEEKNFDQTRFLEDSLLNW [human pro Neuropeptide Q (73-116) (SEQ ID NO: 17)], the “Aequorin EC50” value was more than 10000 nM.
Take NWTPAAMLYLKGAQG [NWTPAAMLYLKGAQG (SEQ ID NO: 26)]: the “FLIPR EC50” value was 12.5 nM.
With WTPQAMLYLKGAQG [WTPQAMLYLKGAQG (SEQ ID NO: 22)], the “FLIPR EC50” value stood at 4.8 nM.
Consider NWTPQAMLYLKGAQGH [rat Neuropeptide Q (SEQ ID NO: 15)], for which the “Aequorin EC50” value turned out to be 5.06 nM.
Turning to NWTPQAMLYLKG [NWTPQAMLYLKG (SEQ ID NO: 19)], the “FLIPR EC50” value was 6.7 nM.
On the same count and under the same terms, the figure for NWTPQAMLYLKPAQG [NWTPQAMLYLKPAQG (SEQ ID NO: 38)] is 20 nM.
On the same count and under the same terms, next, NWTPQAMLYLKGAAG [NWTPQAMLYLKGAAG (SEQ ID NO: 31)]: 0.1 nM; NWTPQAMLYL [NWTPQAMLYL (SEQ ID NO: 21)]: 14 nM.
Same read-out and setting: the figure for NWTPQAMLYLPGAQG [NWTPQAMLYLPGAQG (SEQ ID NO: 37)] is 296 nM; for NWPPQAMLYLKGAQG [NWPPQAMLYLKGAQG (SEQ ID NO: 34)] it is 0.05 nM.
On to NWAPQAMLYLKGAQG [NWAPQAMLYLKGAQG (SEQ ID NO: 24)], for which the “FLIPR EC50” value was found to be 10.9 nM.
The same measure, in the same setting: the figure for NWTPQAMLYLKAAQG [NWTPQAMLYLKAAQG (SEQ ID NO: 30)] is 47 nM.
On the same count and under the same terms, the figure for AWTPQAMLYLKGAQG [AWTPQAMLYLKGAQG (SEQ ID NO: 23)] is 0.7 nM.
As for PWTPQAMLYLKGAQG [PWTPQAMLYLKGAQG (SEQ ID NO: 33)], the “FLIPR EC50” value came out at 0.1 nM.
The same measure, in the same setting: the figure for NWTPQAMLYLKGPQG [NWTPQAMLYLKGPQG (SEQ ID NO: 39)] is 0.3 nM.
In the case of NWTPQAMLYLKGAQGRRFISDQS [human pro Neuropeptide Q (36-58) (SEQ ID NO: 16)], the “Aequorin EC50” value was 17.6 nM.
